From the supplement of paper PMC7877785
± gives the uncertainty stated by the source.

Experiment: self-splicing fitness, log relative to wild type (ln ratio); higher = more splicing; Tetrahymena group I intron in knt gene, E. coli kanamycin selection, DiMSum; sequences stand for … in CUCUCU…GGAGGGAAAAGUUAUCAGGCAUGCACCUGGUAGCUAGUCUUUAAACCAAUAGAUUGCAUCGGUUUAAAAGGCAAGACCGUCAAAUUGCGGGAAAGGGGUCAACAGCCGUUCAGUACCAAGUCUCAGGGGAAACUUUGAGAUGGCCUUGCAAAGGGUAUGGUAAUAAGCUGACGGACAUGGUCCUAACCACGCAGCCAAGUCCUAAGUCAACAGAUCUUCUGUUGAUAUGGAUGCAGUUCACAGACUAAAUGUCGGUCGGGGAAGAUGUAUUCUUCUCAUAAGAUAUAGUCGGACCUCUCCUUAAUGGGAGCUAGCGGAUGAAGUGAUGCAACACUGGAGCCGCUGGGAACUAAUUUGUAUGCGAAAGUAUAUUGAUUAGUUUUGGAGUACUCGUGGUCG
How it was run: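 A randomised library covering all eight P1ex-region intron nucleotides was built with the intron in the knt kanamycin-resistance gene on pET-22b(+) and held in E. coli BL21(DE3). Cells were grown overnight at 37°C or 30°C on LB agar, with or without 25 μg/mL kanamycin, plus 100 μg/mL carbenicillin, 50 μM IPTG and 0.2% rhamnose, and pooled colonies were amplicon-sequenced on an Illumina HiSeq 2500. DiMSum fitness is the error-weighted combination of wild-type-normalised replicate fold changes, kanamycin versus none.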

Sequence	self-splicing fitness (ln) (30 °C)	self-splicing fitness (ln) (37 °C)
CUCAAGCAAUAUUACGCCUC	-2.98 ± 0.14	-2.97 ± 0.28
CUCAAGCAAUAUUACGCUGG	-3.19 ± 0.15	-2.62 ± 0.23
CUCAAGCAAUAUUACGCUUC	-2.35 ± 0.26	-2.7 ± 0.26
CUCAAGCAAUAUUACGGAAC	-4.26 ± 0.42	-2.46 ± 0.3
CUCAAGCAAUAUUACGGCUG	-3.41 ± 0.26	-2.57 ± 0.27
CUCAAGCAAUAUUACGGGGA	-2.01 ± 0.15	-1.33 ± 0.17
CUCAAGCAAUAUUACGGUCA	-3.19 ± 0.2	-2.35 ± 0.2
CUCAAGCAAUAUUACGGUCC	-3.02 ± 0.22	0.396 ± 0.18
CUCAAGCAAUAUUACGGUCG	-1.96 ± 0.098	-1.19 ± 0.12
CUCAAGCAAUAUUACGUAAU	-3.29 ± 0.12	-2.22 ± 0.1
CUCAAGCAAUAUUACGUAUU	-3.74 ± 0.19	-2.58 ± 0.21
CUCAAGCAAUAUUACGUCUC	-4.33 ± 0.39	-0.263 ± 0.2
CUCAAGCAAUAUUACGUGUA	-2.47 ± 0.13	-1.91 ± 0.11
CUCAAGCAAUAUUACGUUUC	-4.05 ± 0.24	-3.83 ± 0.37
CUCCAGCAAUAUUACGAACU	-2.92 ± 0.33	-1.12 ± 0.29
CUCCAGCAAUAUUACGAAGA	–	-3.41 ± 0.42
CUCCAGCAAUAUUACGAAUG	-1.39 ± 0.083	-0.438 ± 0.11
CUCCAGCAAUAUUACGAGCG	-2.95 ± 0.16	-2.56 ± 0.23
CUCCAGCAAUAUUACGAGCU	-4.01 ± 0.28	-2.44 ± 0.23
CUCCAGCAAUAUUACGAGGU	-4.41 ± 0.31	-3.07 ± 0.24
CUCCAGCAAUAUUACGAUAA	-3.22 ± 0.16	-2.41 ± 0.18
CUCCAGCAAUAUUACGAUAG	-1.6 ± 0.079	-0.825 ± 0.1
CUCCAGCAAUAUUACGAUUG	-1.53 ± 0.078	-0.899 ± 0.11
CUCCAGCAAUAUUACGCCCG	-2.56 ± 0.17	-0.904 ± 0.19
CUCCAGCAAUAUUACGCCGG	-3.83 ± 0.26	-2.98 ± 0.24

Sequence	self-splicing fitness (ln) (30 °C)	self-splicing fitness (ln) (37 °C)
CUCCAGCAAUAUUACGCCGU	-3.6 ± 0.3	-3.11 ± 0.35
CUCCAGCAAUAUUACGCCUA	-2.87 ± 0.2	-1.94 ± 0.2
CUCCAGCAAUAUUACGCUCG	-3.69 ± 0.27	-2.36 ± 0.39
CUCCAGCAAUAUUACGCUGC	-3.32 ± 0.15	-2.07 ± 0.21
CUCCAGCAAUAUUACGGCAC	-3.68 ± 0.23	-3.27 ± 0.47
CUCCAGCAAUAUUACGGCGA	-2.16 ± 0.22	-1.6 ± 0.2
CUCCAGCAAUAUUACGGUCG	-0.742 ± 0.054	-0.679 ± 0.071
CUCCAGCAAUAUUACGUCCG	-2.63 ± 0.11	-1.73 ± 0.12
CUCCAGCAAUAUUACGUGAC	-3.38 ± 0.15	-2.98 ± 0.3
CUCCAGCAAUAUUACGUGCC	-3.68 ± 0.33	-0.249 ± 0.27
CUCGAGCAAUAUUACGAAAU	-3.36 ± 0.42	-2.38 ± 0.27
CUCGAGCAAUAUUACGAAGU	-3.64 ± 0.43	-1.84 ± 0.35
CUCGAGCAAUAUUACGACGA	-2.5 ± 0.24	-1.26 ± 0.29
CUCGAGCAAUAUUACGACUG	-1.28 ± 0.1	-0.299 ± 0.15
CUCGAGCAAUAUUACGAGCC	–	-1.68 ± 0.2
CUCGAGCAAUAUUACGAGCU	-3.85 ± 0.32	–
CUCGAGCAAUAUUACGAGUA	-2.77 ± 0.24	-2.75 ± 0.31
CUCGAGCAAUAUUACGAGUC	-3.52 ± 0.32	-2.53 ± 0.2
CUCGAGCAAUAUUACGCAGU	-2.06 ± 0.12	-2.83 ± 0.25
CUCGAGCAAUAUUACGCCUA	–	-0.858 ± 0.46
CUCGAGCAAUAUUACGCGCG	-2.81 ± 0.27	-1.48 ± 0.32
CUCGAGCAAUAUUACGCGGC	-3.35 ± 0.47	-3.16 ± 0.4
CUCGAGCAAUAUUACGCGGU	-4.23 ± 0.46	-1.97 ± 0.27
CUCGAGCAAUAUUACGCUAC	-0.697 ± 0.2	–
